Assay results taken from patent US20230265148A1.
Where “and” joins values, the source holds several entries; their conditions need not be identical. Equal values may be shown once.

Molecular target: human IL-2 receptor αβγ trimer on CHO-K1 cells (CHO-K1 hIL-2R αβγ 2D6) (human) (UniProt P01589)
Assay: FACS on CHO-K1 hIL-2R αβγ 2D6 cells

Chain of UniProt P01589 (P01589 22-272 limits assumed, chain 1 of 3): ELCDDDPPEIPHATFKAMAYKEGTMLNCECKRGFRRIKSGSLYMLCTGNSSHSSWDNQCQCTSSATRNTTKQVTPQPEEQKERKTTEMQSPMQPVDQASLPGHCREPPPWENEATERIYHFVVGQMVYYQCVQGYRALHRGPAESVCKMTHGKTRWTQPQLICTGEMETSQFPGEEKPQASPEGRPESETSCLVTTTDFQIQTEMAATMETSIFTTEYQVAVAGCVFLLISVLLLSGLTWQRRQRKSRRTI
Chain of UniProt P01589 (chain, as listed by the source limits assumed, chain 2 of 3): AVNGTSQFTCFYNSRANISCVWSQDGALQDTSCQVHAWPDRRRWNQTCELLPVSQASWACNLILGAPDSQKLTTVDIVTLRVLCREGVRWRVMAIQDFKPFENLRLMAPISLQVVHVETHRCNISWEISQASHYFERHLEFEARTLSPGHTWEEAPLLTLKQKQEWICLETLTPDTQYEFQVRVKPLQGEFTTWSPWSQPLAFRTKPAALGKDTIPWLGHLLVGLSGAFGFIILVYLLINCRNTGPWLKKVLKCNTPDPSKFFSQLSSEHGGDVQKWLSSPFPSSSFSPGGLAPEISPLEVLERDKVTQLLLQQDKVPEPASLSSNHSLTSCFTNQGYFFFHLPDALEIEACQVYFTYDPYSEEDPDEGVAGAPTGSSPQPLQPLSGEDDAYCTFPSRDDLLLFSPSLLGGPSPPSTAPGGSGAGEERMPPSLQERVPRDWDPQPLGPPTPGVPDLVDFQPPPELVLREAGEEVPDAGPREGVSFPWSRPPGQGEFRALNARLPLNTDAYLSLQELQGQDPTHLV
Chain of UniProt P01589 (chain, as listed by the source limits assumed, chain 3 of 3): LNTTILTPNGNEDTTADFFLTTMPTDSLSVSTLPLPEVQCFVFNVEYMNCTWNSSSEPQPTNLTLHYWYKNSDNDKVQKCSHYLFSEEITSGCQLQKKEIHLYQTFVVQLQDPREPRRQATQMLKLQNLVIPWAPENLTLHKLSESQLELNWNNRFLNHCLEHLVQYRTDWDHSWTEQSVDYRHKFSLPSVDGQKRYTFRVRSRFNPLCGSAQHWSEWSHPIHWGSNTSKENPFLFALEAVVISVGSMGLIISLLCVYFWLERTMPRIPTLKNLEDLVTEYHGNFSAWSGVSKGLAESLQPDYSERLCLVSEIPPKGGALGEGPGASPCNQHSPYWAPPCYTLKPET

Human IgG control (antibody) was tested, and the MFI at 0.0003 nM was 146 MFI, the MFI at 0.0017 nM was 120 MFI and 140 MFI and the MFI at 0.0085 nM was 119 MFI and 145 MFI. For the same substance, the MFI at 0.0427 nM was 274 MFI and 144 MFI, the MFI at 0.2133 nM was 181 MFI and 139 MFI and the MFI at 1.0667 nM was 157 MFI and 138 MFI. For the same substance, the MFI at 5.3333 nM was 124 MFI and 136 MFI and the MFI at 26.667 nM was 118 MFI and 187 MFI.
